Measured values from PMC11098746 (2024).

Experiments:
Assay in all cases: AVEXIS screen signal:noise (double-corrected)
[1] = target: T1, ADP155
T1 chain: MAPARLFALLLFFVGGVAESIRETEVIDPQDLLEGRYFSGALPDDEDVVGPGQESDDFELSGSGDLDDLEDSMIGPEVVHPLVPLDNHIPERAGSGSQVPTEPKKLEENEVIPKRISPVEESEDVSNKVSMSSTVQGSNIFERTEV

[2] = target: T2, ADP154
T2 chain: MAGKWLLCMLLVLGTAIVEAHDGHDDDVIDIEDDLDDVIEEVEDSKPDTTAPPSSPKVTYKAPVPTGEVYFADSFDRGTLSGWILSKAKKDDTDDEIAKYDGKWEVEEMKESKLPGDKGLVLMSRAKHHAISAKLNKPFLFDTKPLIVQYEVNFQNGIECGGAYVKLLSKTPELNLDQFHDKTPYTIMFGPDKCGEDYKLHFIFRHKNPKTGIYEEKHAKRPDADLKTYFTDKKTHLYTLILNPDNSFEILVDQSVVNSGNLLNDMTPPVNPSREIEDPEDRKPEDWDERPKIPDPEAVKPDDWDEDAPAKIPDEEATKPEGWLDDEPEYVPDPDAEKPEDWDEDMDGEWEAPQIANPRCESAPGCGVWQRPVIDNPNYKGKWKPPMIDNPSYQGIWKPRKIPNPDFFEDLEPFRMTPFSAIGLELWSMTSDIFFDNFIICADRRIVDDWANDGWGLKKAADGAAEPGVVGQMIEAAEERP

[3] = target: T3, ADP389
T3 chain: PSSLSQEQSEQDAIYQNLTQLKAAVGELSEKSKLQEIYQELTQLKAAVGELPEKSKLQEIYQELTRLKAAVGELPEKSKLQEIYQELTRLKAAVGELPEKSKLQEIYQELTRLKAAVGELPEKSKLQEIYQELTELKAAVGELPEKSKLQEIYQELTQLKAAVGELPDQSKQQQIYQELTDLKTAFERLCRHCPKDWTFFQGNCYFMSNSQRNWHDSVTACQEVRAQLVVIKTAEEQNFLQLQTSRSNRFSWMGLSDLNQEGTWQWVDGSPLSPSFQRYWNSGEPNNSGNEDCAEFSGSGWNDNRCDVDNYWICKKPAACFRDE

[4] = target: T4, ADP334
T4 chain: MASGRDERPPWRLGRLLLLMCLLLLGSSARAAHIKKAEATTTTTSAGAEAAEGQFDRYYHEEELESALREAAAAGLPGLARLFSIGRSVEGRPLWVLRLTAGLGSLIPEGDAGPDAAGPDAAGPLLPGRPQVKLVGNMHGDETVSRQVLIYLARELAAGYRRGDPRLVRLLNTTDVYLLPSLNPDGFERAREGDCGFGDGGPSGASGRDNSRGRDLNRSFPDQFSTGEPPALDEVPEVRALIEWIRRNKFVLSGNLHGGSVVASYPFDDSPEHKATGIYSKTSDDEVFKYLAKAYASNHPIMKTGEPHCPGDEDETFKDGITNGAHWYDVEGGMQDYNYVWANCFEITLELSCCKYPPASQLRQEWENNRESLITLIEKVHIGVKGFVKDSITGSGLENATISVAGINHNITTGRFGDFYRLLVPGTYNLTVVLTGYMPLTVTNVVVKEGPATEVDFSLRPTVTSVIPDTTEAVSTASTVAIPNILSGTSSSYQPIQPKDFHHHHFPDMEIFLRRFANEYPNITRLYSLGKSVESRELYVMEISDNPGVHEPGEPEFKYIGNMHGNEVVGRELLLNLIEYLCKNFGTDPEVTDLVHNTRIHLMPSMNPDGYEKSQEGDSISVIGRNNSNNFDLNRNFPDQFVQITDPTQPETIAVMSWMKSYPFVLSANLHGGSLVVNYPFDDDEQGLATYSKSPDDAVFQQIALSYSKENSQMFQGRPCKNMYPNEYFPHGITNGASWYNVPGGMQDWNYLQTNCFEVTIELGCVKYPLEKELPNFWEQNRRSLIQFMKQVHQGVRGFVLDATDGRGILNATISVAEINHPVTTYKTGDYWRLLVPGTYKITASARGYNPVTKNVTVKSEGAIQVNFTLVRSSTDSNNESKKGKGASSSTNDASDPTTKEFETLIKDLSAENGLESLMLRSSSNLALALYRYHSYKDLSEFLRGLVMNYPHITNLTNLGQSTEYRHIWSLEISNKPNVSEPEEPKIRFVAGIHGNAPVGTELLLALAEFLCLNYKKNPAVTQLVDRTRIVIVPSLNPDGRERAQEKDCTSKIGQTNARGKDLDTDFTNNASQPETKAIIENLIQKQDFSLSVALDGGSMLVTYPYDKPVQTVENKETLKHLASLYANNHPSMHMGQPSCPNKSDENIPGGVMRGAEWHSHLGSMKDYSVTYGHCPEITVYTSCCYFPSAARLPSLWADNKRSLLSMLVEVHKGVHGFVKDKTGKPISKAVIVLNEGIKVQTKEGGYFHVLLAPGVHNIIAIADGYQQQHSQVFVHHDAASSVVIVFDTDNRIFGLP

B1: ADP243 (protein)
chain: SDSYSTGGNEKEKIFMDNYKYMWTYIYFLQKRIMMKKLSHPLYMSKKFILLHNPKDIEEFRIPLKDTLWSYVDRNSIKGFININLDSIFDIDLKEYYVHDKENMANSEKSEDLECIDAYVQKTNEIYYNMADTKDEAYIFICKKCKHIYKDIKECREKSMQLMIQNMKITVPQIRLKYDKKNRNNEEIIINIPVTYVLSNLLSSLKKTVTYNTDDLNNACNVLIKMLHLDLLKILYNLQYHNGIFNGITEKYLIEFRNIFVKRQKTNTEDNNDMIWEECFVLKKSIDKIMNINSFLLTKSRNRYMDYLQNRRKRYRDILFMITYNVADMNLNTYIKSIYNYIHISTKIIEDIQYIYNQEVYATFFVRTELIETYLLRNPKQLKNTCSIYIMITISWFFNQINIGMYNKNKNVYDLFKEKFSKSNVKQIINSIYTNNVENKANILQICNDAMTNTIELIKKVIKNYYKQNNVLSNYNINFAGLIKFIDIQILRMKFIQSTLEKQPLIEYDTLNDDHLNNDAIIKRENMVCMMKYISNKINTYISLLKKSDLQTIMLQNYDKYNIYLDTYFTHNENVFFCSSPGQYLIIKIFFYSFFNILNIYG
modifications: bait human Fc-tagged dimer; N-glycosylation sequons mutated in Plasmodium baits
[1]
  binding score: 8.67
[2]
  binding score: 8.73

B2: ADP172 (protein)
chain: YLEQIKNGISGHYTEDHNIKNNNCISFSDYERSIKNFAISSHAENNYDNIINEYKKIKDINNNINILSSVHRKGRILYDSFLEINKLENDKKEKHEKEDEYEDNDESFLETEEYEDNEDEKYNKDEDDYAESFIETDEYEDNEDDKYNKDEDDYSESFIETDEYDDNEEEQYNKDEDDYTDSFIETDHYENNDDKNEEEEEYNDQDNDYGYNFLETDEYDDSEEYDYDDKEYGESFLEKEEGEEMKDEEMKDEEMKDVEMKDEEMKDEEMKYDEMKNEEMKYDEMKDEVMKDEEMKDEVMKDEEMKDEQMKYEEFKNEESKNEESKNEESKNEESKNEEFKNEESKNEEFKNEEFKNEDMSYDEYMGYKKKEEDESYNTFNGAKKNNAANSFLEKDLQGDSDDELHSTFYSKNVDKENYDDKNIFYGYSDNDDESFLETDSYEEYEDEDKDVEDEYEESFLQNDEKKMVFYDLYKPEENEAYYEKKQKKEEKEEKEEKEQSLNKQNDMEDQEDNEEYKFEEENKEDLLDVQQDEELPSEGKQKVKGKSFDNEHLNEIQNVADVHAFIQKDMKYLDDLIDEEQTIKDAVKKSAYKGNKKLGNNKKSQMILEEEPEENFEEDADEELNKLMEQEKNIVDKEIKNSKANKANKKLQFNNANKQNKMYMKNEYNNKAKNNKNNKFEQQNYDESYMDDDYEQNEEFNDNNQAEDMKETNELDKINDELLTDQGPNEDTLLENNNKIFDNKFVAHKKREKSISPHSYQKVSTKVQNKEDMENKEEKQLINDEAAMTAEELVELENTEDVNTPTMVETEEIDSDENGNKAS
modifications: bait human Fc-tagged dimer; N-glycosylation sequons mutated in Plasmodium baits
[3]
  binding score: 7.86
[4]
  binding score: 13.1
